{
  "source": "the supplement of paper PMC9112550",
  "about": "“Optimization of the antimicrobial peptide Bac7 by deep mutational scanning” (BMC Biology, 2022);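 further: peptides expressed intracellularly from a pBAD plasmid library in pooled LB shake-flask culture, induced with 0.3% L-arabinose, DNA abundance read by NGS, three biological replicates, DESeq2 with apeglm shrinkage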",
  "data": [
    {"tested_on": "Escherichia coli TOP10", "experiment": "shrunken log2 fold change of peptide-encoding DNA abundance (4.5 h post-induction vs induction); higher = less antimicrobial activity (less host growth inhibition)", "conditions": "time post-induction: 4.5 h; library: site-saturation at positions 5, 18, 19, 20", "values": [
      {"sequence": "RRIRHRPPRLPRPRPRPWLDPRP", "shrunken log2 fold change": -0.377},
      {"sequence": "RRIRRRPPRLPRPRPRPCYIPRP", "shrunken log2 fold change": -0.205},
      {"sequence": "RRIRIRPPRLPRPRPRPVAHPRP", "shrunken log2 fold change": 0.0168},
      {"sequence": "RRIRFRPPRLPRPRPRPKCMPRP", "shrunken log2 fold change": -0.967},
      {"sequence": "RRIRTRPPRLPRPRPRPKYYPRP", "shrunken log2 fold change": -0.54},
      {"sequence": "RRIRARPPRLPRPRPRPNEIPRP", "shrunken log2 fold change": -0.179},
      {"sequence": "RRIRKRPPRLPRPRPRPVPFPRP", "shrunken log2 fold change": -0.101},
      {"sequence": "RRIRGRPPRLPRPRPRPSPCPRP", "shrunken log2 fold change": -0.0911},
      {"sequence": "RRIRGRPPRLPRPRPRPHMDPRP", "shrunken log2 fold change": 0.0325},
      {"sequence": "RRIRPRPPRLPRPRPRPTSKPRP", "shrunken log2 fold change": 0.188},
      {"sequence": "RRIRERPPRLPRPRPRPNSLPRP", "shrunken log2 fold change": 0.0427},
      {"sequence": "RRIRMRPPRLPRPRPRPQAAPRP", "shrunken log2 fold change": 0.87},
      {"sequence": "RRIRQRPPRLPRPRPRPLFAPRP", "shrunken log2 fold change": 0.013},
      {"sequence": "RRIRRRPPRLPRPRPRPHTGPRP", "shrunken log2 fold change": -0.105},
      {"sequence": "RRIRYRPPRLPRPRPRPLHVPRP", "shrunken log2 fold change": -0.21},
      {"sequence": "RRIRTRPPRLPRPRPRPKRGPRP", "shrunken log2 fold change": 0.175},
      {"sequence": "RRIRSRPPRLPRPRPRPHTPPRP", "shrunken log2 fold change": -0.318},
      {"sequence": "RRIRFRPPRLPRPRPRPMTEPRP", "shrunken log2 fold change": -0.0907},
      {"sequence": "RRIRLRPPRLPRPRPRPSGYPRP", "shrunken log2 fold change": -0.152},
      {"sequence": "RRIRERPPRLPRPRPRPWAEPRP", "shrunken log2 fold change": 0.0285},
      {"sequence": "RRIRQRPPRLPRPRPRPMNDPRP", "shrunken log2 fold change": -0.227},
      {"sequence": "RRIRPRPPRLPRPRPRPKVCPRP", "shrunken log2 fold change": 0.0118},
      {"sequence": "RRIRGRPPRLPRPRPRPEMWPRP", "shrunken log2 fold change": 1.76},
      {"sequence": "RRIRGRPPRLPRPRPRPAPYPRP", "shrunken log2 fold change": 0.218},
      {"sequence": "RRIRTRPPRLPRPRPRPEDVPRP", "shrunken log2 fold change": -0.0588},
      {"sequence": "RRIRSRPPRLPRPRPRPICWPRP", "shrunken log2 fold change": 0.0446},
      {"sequence": "RRIRDRPPRLPRPRPRPSKTPRP", "shrunken log2 fold change": 0.0521},
      {"sequence": "RRIRVRPPRLPRPRPRPQEYPRP", "shrunken log2 fold change": 0.0203},
      {"sequence": "RRIRYRPPRLPRPRPRPMSEPRP", "shrunken log2 fold change": 0.0461},
      {"sequence": "RRIRLRPPRLPRPRPRPRKWPRP", "shrunken log2 fold change": 0.184},
      {"sequence": "RRIRFRPPRLPRPRPRPSQWPRP", "shrunken log2 fold change": -0.171},
      {"sequence": "RRIRQRPPRLPRPRPRPHSNPRP", "shrunken log2 fold change": -0.0311},
      {"sequence": "RRIRERPPRLPRPRPRPYLIPRP", "shrunken log2 fold change": -0.626},
      {"sequence": "RRIRHRPPRLPRPRPRPGTEPRP", "shrunken log2 fold change": -0.0642},
      {"sequence": "RRIRCRPPRLPRPRPRPKVVPRP", "shrunken log2 fold change": -0.0915},
      {"sequence": "RRIRGRPPRLPRPRPRPRHLPRP", "shrunken log2 fold change": 0.221},
      {"sequence": "RRIRQRPPRLPRPRPRPNTCPRP", "shrunken log2 fold change": -1.35},
      {"sequence": "RRIRLRPPRLPRPRPRPHIGPRP", "shrunken log2 fold change": -0.0255},
      {"sequence": "RRIRERPPRLPRPRPRPRFSPRP", "shrunken log2 fold change": -0.0175},
      {"sequence": "RRIRHRPPRLPRPRPRPPERPRP", "shrunken log2 fold change": 0.511},
      {"sequence": "RRIRFRPPRLPRPRPRPNMKPRP", "shrunken log2 fold change": 0.234},
      {"sequence": "RRIRWRPPRLPRPRPRPSTTPRP", "shrunken log2 fold change": 0.221},
      {"sequence": "RRIRYRPPRLPRPRPRPEIAPRP", "shrunken log2 fold change": -0.185},
      {"sequence": "RRIRPRPPRLPRPRPRPPGQPRP", "shrunken log2 fold change": 0.141},
      {"sequence": "RRIRVRPPRLPRPRPRPGWMPRP", "shrunken log2 fold change": 0.159},
      {"sequence": "RRIRYRPPRLPRPRPRPYYRPRP", "shrunken log2 fold change": -0.161},
      {"sequence": "RRIRYRPPRLPRPRPRPEVCPRP", "shrunken log2 fold change": -0.0334},
      {"sequence": "RRIRPRPPRLPRPRPRPICNPRP", "shrunken log2 fold change": -0.367},
      {"sequence": "RRIRKRPPRLPRPRPRPEHVPRP", "shrunken log2 fold change": 0.0142},
      {"sequence": "RRIRCRPPRLPRPRPRPIQAPRP", "shrunken log2 fold change": 0.0936},
      {"sequence": "RRIRGRPPRLPRPRPRPTMIPRP", "shrunken log2 fold change": 0.0786},
      {"sequence": "RRIRIRPPRLPRPRPRPWNTPRP", "shrunken log2 fold change": -0.256},
      {"sequence": "RRIRERPPRLPRPRPRPKWCPRP", "shrunken log2 fold change": -0.0117},
      {"sequence": "RRIRKRPPRLPRPRPRPWIQPRP", "shrunken log2 fold change": -0.01},
      {"sequence": "RRIRGRPPRLPRPRPRPEWLPRP", "shrunken log2 fold change": 1.5},
      {"sequence": "RRIRNRPPRLPRPRPRPIAPPRP", "shrunken log2 fold change": 0.0153},
      {"sequence": "RRIRYRPPRLPRPRPRPIYEPRP", "shrunken log2 fold change": 0.0166},
      {"sequence": "RRIRFRPPRLPRPRPRPLHAPRP", "shrunken log2 fold change": 0.0292},
      {"sequence": "RRIRTRPPRLPRPRPRPTVWPRP", "shrunken log2 fold change": -0.049},
      {"sequence": "RRIRWRPPRLPRPRPRPHNKPRP", "shrunken log2 fold change": -0.39},
      {"sequence": "RRIRNRPPRLPRPRPRPNRGPRP", "shrunken log2 fold change": 0.0523},
      {"sequence": "RRIRMRPPRLPRPRPRPSVPPRP", "shrunken log2 fold change": -0.0568},
      {"sequence": "RRIRLRPPRLPRPRPRPSCFPRP", "shrunken log2 fold change": 0.172},
      {"sequence": "RRIRERPPRLPRPRPRPFGRPRP", "shrunken log2 fold change": -0.0419},
      {"sequence": "RRIRNRPPRLPRPRPRPMCVPRP", "shrunken log2 fold change": -0.166},
      {"sequence": "RRIRQRPPRLPRPRPRPHMYPRP", "shrunken log2 fold change": -0.706},
      {"sequence": "RRIRMRPPRLPRPRPRPQCKPRP", "shrunken log2 fold change": -0.0461},
      {"sequence": "RRIRWRPPRLPRPRPRPVCIPRP", "shrunken log2 fold change": 0.12},
      {"sequence": "RRIRMRPPRLPRPRPRPWRFPRP", "shrunken log2 fold change": 0.0528},
      {"sequence": "RRIRPRPPRLPRPRPRPKVHPRP", "shrunken log2 fold change": -0.132},
      {"sequence": "RRIRFRPPRLPRPRPRPYDFPRP", "shrunken log2 fold change": -0.0848},
      {"sequence": "RRIRERPPRLPRPRPRPHVRPRP", "shrunken log2 fold change": -0.105},
      {"sequence": "RRIRRRPPRLPRPRPRPQKWPRP", "shrunken log2 fold change": 0.136},
      {"sequence": "RRIRRRPPRLPRPRPRPCIHPRP", "shrunken log2 fold change": -0.402},
      {"sequence": "RRIRRRPPRLPRPRPRPKSKPRP", "shrunken log2 fold change": 0.165}
    ]}
  ]
}
